19 molecules from US20140120095A1 (Boehringer Ingelheim, published 2014) can be followed below.

As a reminder, the koff is the first-order rate constant of dissociation. What is called Kd is the concentration at which binding is half-saturated. Broadly, the kon is a measure of how fast the partners come together. A word on the IC50: it is the concentration that inhibits the measured activity by half. For orientation: % inhibition means how much of the control response was suppressed.

Numbering of substitutions follows the chain as printed.

The target of one test is T1, recombinant human DLL4 (human, UniProt Q9NR61 25-522).
T1 construct: also called rhDLL4; hDLL4
As to the kind of experiment: Biacore off-rate, periplasmic extract.

Test [1] deals with T2, human DLL4 overexpressed on cells (human, UniProt Q9NR61 27-685).
T2 construct: full length human DLL4 on CHO or HEK293 cells; also called CHO-hDLL4; CHO-hDII4
Nature of the test: FMAT, labelled hNotch1-Fc on CHO-hDLL4, periplasmic extract. From the text: (§1) All calculations are based on the FL1_total signal which comprises the average of the fluorescence per well times the number of counts per well.

Test [2] has as its target T3, mouse DLL4 overexpressed on cells (mouse, UniProt Q9JI71 27-686).
T3 construct: whole, on cells; also called CHO-mDLL4; CHO-mDII4
Nature of the test: FMAT, labelled hNotch1-Fc on CHO-mDLL4, periplasmic extract.
Description: as §1

Test [3] addresses T4, recombinant human DLL4 (C-terminally His-tagged extracellular domain, R&D Systems) (human, UniProt Q9NR61 25-522, biotinylated in the competition ELISA).
T4 construct: also called rhDLL4; hDLL4
As to the kind of experiment: SPR (Biacore), rhDLL4. As for the experimental part: Kinetic analysis to determine the affinity of the DII4-VHH interaction is performed by Surface Plasmon Resonance (SPR) on a Biacore T100 instrument. […] Purified VHHs or Fab fragment are injected for 2 minutes at different concentrations (between 10 and 300 nM) and allowed to dissociate for 20 min at a flow rate of 45 μl/min. Between sample injections, the surfaces are regenerated with 10 mM glycine pH1.5 and 100 mM HCl. HBS-N (Hepes buffer pH7.4) is used as running buffer. If possible, data are evaluated by fitting a 1:1 interaction model (Langmuir binding) onto the binding curves. The affinity constant KD is calculated from resulting association and dissociation rate constants (kₐ) and […].

The target of test [4] is T4, recombinant human DLL4 (C-terminally …). As to the kind of experiment: SPR (Biacore); summary table. For orientation: Surface plasmon resonance follows binding to a sensor surface in real time, without labels.
For test [5] the target is unchanged. As to the kind of experiment: competition ELISA hDLL4/hNotch1-Fc; summary table. In general terms: An ELISA detects its analyte on a solid surface through an enzyme-linked reagent.
For test [6] the target is unchanged. Nature of the test: competition ELISA, biotinylated hDLL4 to coated hNotch1-Fc.
Test [7] shares this target. As to the kind of experiment: ProteOn off-rate screen, periplasmic extract, coated human DLL4. On the procedure:
(§2) In a first cycle, amino acid substitutions are introduced randomly in both framework (FW) and complementary determining regions (CDR) using the error-prone PCR method. […] After a polish step, PCR products are inserted via unique restriction sites into a vector designed to facilitate phage display of the VHH library. Consecutive rounds of in-solution selections are performed using decreasing concentrations of biotinylated recombinant human DLL4 (biot-rhDLL4) and trypsin elutions. Affinity-driven selections in a third round using cold rhDLL4 (at least 100× excess over biot-rhDLL4) are also performed. No selections on murine DLL4 are included as (conservation of) cross-reactivity is assessed at the screening level. Individual mutants are produced as recombinant protein using an expression vector derived from pUC119, which contains the LacZ promoter, a resistance gene for ampicillin, a multiple cloning site and an ompA leader sequence (pAX50). E. coliTG1 cells are transformed with the expression vector library and plated on agar plates (LB+Amp+2% glucose). Single colonies are picked from the agar plates and grown in 1 mL 96-deep-well plates. VHH expression is induced by adding IPTG (1 mM). Periplasmic extracts (in a volume of ˜80 uL) are prepared according to standard methods and screened for binding to recombinant human and mouse DII4 in a ProteOn (BioRad, Hercules, Calif., USA) off-rate assay. In brief, a GLC ProteOn Sensor chip is coated with recombinant human DII4 on the “ligand channels” L2 and L4 (with L1/L3 as reference channel), while “ligand channels” […] is coated with mouse DII4. Periplasmic extract of affinity-matured clones is diluted 1/10 and injected across the “analyte channels” A1-A6. An average off-rate is calculated of the wild type clones present in the plate and served as a reference to calculate off-rate improvements.

In test [8] the target is T5, recombinant mouse DLL4 (C-terminally His-tagged extracellular domain, R&D Systems) (mouse, UniProt Q9JI71 27-532).
T5 construct: extracellular domain; also called rmDLL4; mDLL4
T5 sequence (Q9JI71 27-532): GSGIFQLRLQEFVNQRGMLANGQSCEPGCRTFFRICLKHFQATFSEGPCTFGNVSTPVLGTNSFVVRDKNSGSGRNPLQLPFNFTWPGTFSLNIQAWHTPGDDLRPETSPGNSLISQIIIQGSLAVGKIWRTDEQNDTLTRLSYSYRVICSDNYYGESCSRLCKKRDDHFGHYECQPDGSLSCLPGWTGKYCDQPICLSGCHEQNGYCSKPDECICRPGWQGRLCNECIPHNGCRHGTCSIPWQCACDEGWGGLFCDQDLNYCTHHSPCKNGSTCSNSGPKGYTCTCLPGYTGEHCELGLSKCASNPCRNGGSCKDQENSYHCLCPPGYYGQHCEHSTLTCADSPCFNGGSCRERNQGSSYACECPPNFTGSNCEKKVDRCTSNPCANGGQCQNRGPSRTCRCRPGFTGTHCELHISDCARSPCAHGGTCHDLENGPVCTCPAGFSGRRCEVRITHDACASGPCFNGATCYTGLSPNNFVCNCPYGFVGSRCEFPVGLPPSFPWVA
Nature of the test: ProteOn off-rate screen, periplasmic extract, coated mouse DLL4. On the procedure: as §2

Test [9] has as its target T6, recombinant human VEGF165 (human, UniProt P15692-4 27-191, biotinylated in the competition assays).
T6 construct: Bought protein; also called hVEGF165; rhVEGF165
Nature of the test: AlphaScreen, hVEGF165/hVEGFR2-Fc competition. More on the design: % inhibition: concentration or dose not given beside the values. For orientation: Bead proximity is the source of the signal in Alpha formats.

T3 sequence (Q9JI71 27-686): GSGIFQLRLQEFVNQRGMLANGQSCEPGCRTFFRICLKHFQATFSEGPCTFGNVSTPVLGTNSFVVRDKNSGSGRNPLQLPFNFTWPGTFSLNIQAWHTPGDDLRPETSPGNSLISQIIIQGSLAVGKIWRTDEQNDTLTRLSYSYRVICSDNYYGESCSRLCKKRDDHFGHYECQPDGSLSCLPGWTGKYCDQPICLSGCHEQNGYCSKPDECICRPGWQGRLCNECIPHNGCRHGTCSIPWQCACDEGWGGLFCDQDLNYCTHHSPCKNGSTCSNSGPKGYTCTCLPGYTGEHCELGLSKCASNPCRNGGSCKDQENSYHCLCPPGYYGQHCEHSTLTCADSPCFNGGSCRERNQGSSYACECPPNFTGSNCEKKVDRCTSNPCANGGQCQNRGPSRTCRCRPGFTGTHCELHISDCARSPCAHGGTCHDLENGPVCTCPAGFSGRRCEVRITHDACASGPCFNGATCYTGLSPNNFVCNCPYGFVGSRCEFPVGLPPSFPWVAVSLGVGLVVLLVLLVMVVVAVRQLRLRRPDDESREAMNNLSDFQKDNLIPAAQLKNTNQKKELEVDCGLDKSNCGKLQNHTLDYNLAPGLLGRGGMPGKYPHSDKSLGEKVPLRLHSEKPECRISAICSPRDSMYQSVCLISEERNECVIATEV
T6 sequence (P15692 other isoform, or with tags, fused parts or gaps): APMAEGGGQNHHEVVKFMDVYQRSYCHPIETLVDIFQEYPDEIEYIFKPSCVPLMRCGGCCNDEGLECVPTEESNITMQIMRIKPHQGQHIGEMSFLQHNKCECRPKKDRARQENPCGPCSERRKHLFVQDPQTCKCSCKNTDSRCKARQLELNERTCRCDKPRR

B1: DLLBII104C04 (VHH)
VHH: EVQLVESGGGLVQAGGSLRLSCAAAGSTFSSYVMGWYRQAPGKQRELVAHISTRGITYYADSVKGRFTISRDNAKNTMYLQMNSLKPEDTAVYYCNTRRNFLSNYWGQGTQVTVSS
For B1, the koff in the test with recombinant human DLL4 was 0.001 s⁻¹. In addition, the “% inh” value in test [1] was 87%; in [2] it was 83%.

B2: DLLBII129A03 (VHH, not shown: small tags and cut ends)
VHH: EVQLVESGGGLVQAGGSLRLSCAASGRTFSSYAMAWFRQAPGKEREYVAAIRWSGGTAYYADSVQGRFTISRDNAKNTVYLQMNSLRPEDTAVYYCANRAPDTRLRPYLYDYWGQGTQVTVSS
B2: the Kd in test [3] and in test [4] was 0.5 nM throughout. For the same molecule, the koff was 0.00012 s⁻¹ in test [3], 0.00012 s⁻¹ in [7] and 0.00038 s⁻¹ in [8]. The kon in test [3] was determined as 210000 M⁻¹ s⁻¹. For the same molecule, the IC50 in test [5] and in test [6] was 1.8 nM throughout. The “fold (off-rate vs DLLBII101G08)” value was found to be 19 fold in [7] and 18 fold in test [8].

B3: DLLBII130F06 (VHH, not shown: small tags and cut ends)
VHH: B2 VHH with F37Y, R87K, R106A, L109E
For the molecule B3, the dissociation constant (Kd) in test [3] and in test [4] was 0.4 nM each time. For the same molecule, the values for the koff in test [3], in test [7] and in test [8] were 8e-05 s⁻¹, 6.5e-05 s⁻¹ and 0.00026 s⁻¹, respectively. For the same molecule, the kon in [3] was determined as 200000 M⁻¹ s⁻¹. Further, the IC50 in [5] and in test [6] was 1.3 nM each time. In addition, the results for the “fold (off-rate vs DLLBII101G08)” value in [7] and in [8] were 27 fold and 19 fold, respectively.

B4: DLLBII129H07 (VHH, not shown: small tags and cut ends)
VHH: B2 VHH with F37Y, R87K, R106E, L109E
Regarding B4, the Kd in test [3] and in test [4] was 0.5 nM in each case. For the same molecule, the koff in test [3] came out at 7.3e-05 s⁻¹; in test [7] it was 7.4e-05 s⁻¹; in test [8], 0.00025 s⁻¹. In addition, the kon in [3] came out at 160000 M⁻¹ s⁻¹. The IC50 in test [5] and in [6] was 1 nM in each case. Moreover, the results for the “fold (off-rate vs DLLBII101G08)” value in test [7] and in test [8] were 30 fold and 27 fold, respectively.

B5: DLLBII130B03 (VHH, not shown: small tags and cut ends)
VHH: B2 VHH with F37Y, R87K, R106A
As for B5, the Kd in [3] and in test [4] was 0.3 nM throughout. Further, the koff in test [3] amounted to 6.8e-05 s⁻¹; in test [7], 6.7e-05 s⁻¹; in [8], 0.00024 s⁻¹. Moreover, the kon in test [3] was 220000 M⁻¹ s⁻¹. For the same molecule, the IC50 in test [5] and in test [6] was 1.5 nM in each case. Besides, the results for the “fold (off-rate vs DLLBII101G08)” value in test [7] and in [8] were 27 fold and 20 fold, respectively.

B6: DLLBII133A05 (VHH)
VHH: EVQLVESGGGLVQPGGSLRLSCAASGFTFGSYDMSWVRRSPGKGPEWVSAINSGGGSTFYTDYVKGRFTISRDNAKNTLYLQMNSLKPEDTAVYYCAADRYIWARQGEYWGAYQYDYWGQGTQVTVSS
On to B6, for which the IC50 in test [5] and in test [6] was 2.1 nM each time.

B7: DLLBII83G01 (VHH)
VHH: EVQLVESGGGLVQAGGSLRLSCAASGRTFSNYIMGWFRQAPGKEREFVAGISRYADYTGYADSVKGRFTISRDNVKNTVYLRMNSLKPDDTAVYYCAANEGYCSGYGCYEDSGQYDYWGQGTQVTVSS
Consider B7, for which, in the test with recombinant human DLL4, the koff came to 0.00041 s⁻¹. Moreover, the “% inh” value came to 87% in test [1] and 93% in test [2].

B8: VEGFBII111D05 (VHH)
VHH: EVQLVESGGGLVQTGGSLRLSCEASGRTFSSYSMGWFRQAPGKEREFVVAISKGGYKYDSVSLEGRFTISRDNAKNTVYLQINSLRPEDTAVYYCASSRAYGSSRLRLADTYEYWGQGTLVTVSS
With B8, in test [9], the “% inhibition” value was found to be 100% and the IC50 came out at 0.209 nM.

B9: VEGFBII118E10 (VHH)
VHH: B8 VHH with G16D, A24V, P41Q, S60A, R71K, R86K, L120Q
In the case of B9, in [9], the “% inhibition” value came out at 100% and the IC50 amounted to 0.189 nM.

B10: VEGFBII112D11 (VHH)
VHH: B8 VHH with T14P
Regarding B10, in [9], the “% inhibition” value came out at 100% and the IC50 turned out to be 0.221 nM.

B11: VEGFBII113E03 (VHH)
VHH: B8 VHH with G16D, A24V, P41Q, R71K, I82M
For B11, in test [9], the “% inhibition” value was 100% and the half-inhibitory concentration (IC50) worked out at 0.29 nM.

B12: VEGFBII114C09 (VHH)
VHH: B8 VHH with T14P, G16D, A24V, R71K
Consider B12, for which, in [9], the “% inhibition” value turned out to be 100% and the IC50 turned out to be 0.215 nM.

B13: VEGFBII111G06 (VHH)
VHH: B8 VHH with T14P, E23A, I82M
As to B13, in test [9], the “% inhibition” value is 100% and the IC50 is 0.366 nM.

B14: VEGFBII113A08 (VHH)
VHH: B8 VHH with A24V, R71K
Turning to B14, in test [9], the “% inhibition” value was 100% and the IC50 turned out to be 0.253 nM.

B15: VEGFBII114D03 (VHH)
VHH: B8 VHH with G16D, E23A, A24V, P41Q, R71K
Regarding B15, in [9], the “% inhibition” value is 100% and the IC50 was determined as 0.227 nM.

B16: VEGFBII114D02 (VHH)
VHH: B8 VHH with A24V
For the molecule B16, in test [9], the “% inhibition” value came to 100% and the IC50 turned out to be 0.199 nM.

B17: DLLBII95F02 (VHH)
VHH: EVQLVESGGGSVQAGGSLRLSCAASGRTFSSYAMGWFRQAPGKEREFVAAINWSGGYTYYADSVRGRFTISRDNAKNTVYLQMNSLKPEDTAVYYCAAPAPGSSGYEYDYWGQGTQVTVSS
B17: the koff with recombinant human DLL4 came to 0.00067 s⁻¹. In addition, the “% inh” value in test [1] worked out at 81%; in test [2] it was 71%.

B18: DLLBII58A11 (VHH)
VHH: EVQLVESGGGLVQAGGSLRLSCTTSERTVSRYSMGWFRQAPGKEREAVATISWSGDSTYYADSVKGRFTISRDNTKNTLYLQIDSLKPEDTAVYYCVAKPNLKYGSYWPPRGYDYWGQGTQVTVSS
As for B18, the koff with recombinant human DLL4 came out at 0.0016 s⁻¹. Besides, the “% inh” value in test [1] came to 95%; in test [2] it was 73%.

B19: DLLBII80E08 (VHH)
VHH: EVQLVESGGGLVQAGGSLTLSCAASGGTFTTYAMGWFRQAPGKEREFVAAVSRFGVSWDYADSVKGRFTISRDNTANTLKLRMNSLKADDTAVYYCAAGGRSFLPFVPAYWGQGTQVTVSS
With B19, the “% inh” value in test [1] worked out at 71%; in test [2] it was 82%.
